In publication PMC3536784 (PLoS ONE, 2013):

B1: biphenyl dioxygenase (BPDO_(B356)) α-subunit from Pandoraea pnomenusa B-356 (enzyme)
chain: MSSTMKDTQEAPVRWSRNWTPDAIRALVDQDNGKLDARIYADQDLYQLELERVFGRSWLMLGHETHIPKIGDYLTTYMGEDPVIMVRQKDQSIKVFLNQCRHRGMRIVRSDGGNAKAFTCTYHGWAYDIAGNLVNVPFEKEAFCDKKEGDCGFDKADWGPLQARVETYKGLVFANWDPEAPDLKTYLSDAMPYMDVMLDRTEAGTEAIGGIQKWVIPCNWKFAAEQFCSDMYHAGTMSHLSGVLAGLPPEMDLTQIQLSKNGNQFRSAWGGHGAGWFINDSSILLSVVGPKITQYWTQGPAAEKAARRVPQLPILDMFGQHMTVFPTCSFLPGINTIRTWHPRGPNEVEVWAFVLVDADAPEDIKEEFRLQNIRTFNAGGVFEQDDGENWVEIQRVMRGHKAKSTSLCAKMGLNVPNKNNPAYPGKTAYVYAEEAARGMYHHWSRMMSEPSWDTLKP
notes: Co-produced and co-purified with the β-subunit as the (αβ)3 oxygenase; three copies in the hexamer; Holds a Rieske Fe2S2 cluster and a mononuclear Fe(II); also called α of BphAE; source: heterologously produced and purified anaerobically as described previously [17]
B2: biphenyl dioxygenase (BPDO_(B356)) β-subunit from Pandoraea pnomenusa B-356 (enzyme, UniProt Q46373 1-186, looked up)
chain: MISTPLSKEFEWPAKPVSLELQHQVEQFYYREAQLLDHHAFQAWFALLAEDIHYWMPIRTVRTAREQGLEYVPAGANAHFDDTHATMYGRIRQKTSDLNWAEDPPSRTRHLVSNVIVREMDTPGTLEVASAFLLYRSRLERQVDVFAGERRDVLRIADNPLGFQIAKRTIILDQSTVLANNLSVFF
notes: the final models include the complete β-subunit; Co-produced and co-purified with the α-subunit as the (αβ)3 oxygenase; three copies in the hexamer; also called β of BphAE; BPDO β; source: heterologously produced and purified anaerobically as described previously [17]

Tests used:
[1] = target: the molecule itself; test: crystal structure; crystals grown anaerobically by sitting drop vapor diffusion (citrate pH 5.8 or MES pH 6.0), space group R3, one αβ protomer in the asymmetric unit; three αβ protomers about the crystallographic three-fold axis form the (αβ)3 hexamer; without and with biphenyl
[2] = target: B1; test: as above; settings: both partners purified

Binder: B1
- binding result [1]: binds

Binder: B2
- binding result [1]: binds
- binding result [2]: binds
